Source: the DeepSol protein solubility set

Assay: soluble on expression in E. coli; label from the status in PepcDB or PDB records

Sequence	soluble on expression in E. coli
MLRTAGRDGLCRLSTYLEELEAVELKKFKLYLGTATELGEGKIPWGSMEKAGPLEMAQLLITHFGPEEAWRLALSTFERINRKDLWERGQREDLVRDTPPGGPSSLGNQSTCLLEVSLVTPRKDPQETYRDYVRRKFRLMEDRNARLGECVNLSHRYTRLLLVKEHSNPMQVQQQLLDTGRGHARTVGHQASPIKIETLFEPDEERPEPPRTVVMQGAAGIGKSMLAHKVMLDWADGKLFQGRFDYLFYINCREMNQSATECSMQDLIFSCWPEPSAPLQELIRVPERLLFIIDGFDELKPSFHDPQGPWCLCWEEKRPTELLLNSLIRKKLLPELSLLITTRPTALEKLHRLLEHPRHVEILGFSEAERKEYFYKYFHNAEQAGQVFNYVRDNEPLFTMCFVPLVCWVVCTCLQQQLEGGGLLRQTSRTTTAVYMLYLLSLMQPKPGAPRLQPPPNQRGLCSLAADGLWNQKILFEEQDLRKHGLDGEDVSAFLNMNIFQKDINCERYYSFIHLSFQEFFAAMYYILDEGEGGAGPDQDVTRLLTEYAFSERSFLALTSRFLFGLLNEETRSHLEKSLCWKVSPHIKMDLLQWIQSKAQSDGSTLQQGSLEFFSCLYEIQEEEFIQQALSHFQVIVVSNIASKMEHMVSSFCLKRCRSAQVLHLYGATYSADGEDRARCSAGAHTLLVQLPERTVLLDAYSEHLAAALCTNPNLIELSLYRNALGSRGVKLLCQGLRHPNCKLQNLRLKRCRISSSACEDLSAALIANKNLTRMDLSGNGVGFPGMMLLCEGLRHPQCRLQMIQLRKCQLESGACQEMASVLGTNPHLVELDLTGNALEDLGLRLLCQGLRHPVCRLRTLWLKICRLTAAACDELASTLSVNQSLRELDLSLNELGDLGVLLLCEGLRHPTCKLQTLRLGICRLGSAACEGLSVVLQANHNLRELDLSFNDLGDWGLWLLAEGLQHPACRLQKLWLDSCGLTAKACENLYFTLGINQTLTDLYLTNNALGDTGVRLLCKRLSHPGCKLRVLWLFGMDLNKMTHSRLAALRVTKPYLDIGC	soluble
MGSDKIHHHHHHMTTSKRVAIIGAGPSGLAQLRAFQSAAAKGEEIPEIVCFEKQDNWGGLWNYTWRTGLDENGEPVHCSMYRYLWSNGPKEGLEFADYSFEEHFGKQIASYPPRAVLFDYIEGRVLKANVRDWIRFSTAVRWIDYNDETGLFKVTVHDHTNDRVYSEEFDHVICASGHFSTPNVPHYEGFETFNGRLVHAHDFRDAREFAGKDILVVGSSYSAEDIGSQCWKYGAKSITSCYRSAPMGFKWPDNWEEKPALVKVDKNTVFFSDGTSREVDAIILCTGYKHFFNFLPDDLRLKTANRLATADLYKGVVYVHNPKMFYLGMQDQWFTFNMFDAQAWWVRDAIMGKIDLSNVTKEQMLADVTERETREEASDDVKYAIRYQADYVKELVAETDYPSFDIDGACEAFFQWKKHKGEDIMAFRNNSYTSVITGTLAPVHHTPWKDALDDSMEAYLRN	not soluble
MSLNRKTPKTTDGLMRHIRDNKGIQINGSTEKNQLRNIGYFHGFKGYNFFLNKEEELNFEKFSELHALYSFDTEIKNLFYKHVMFCETAIKNRLLEIVCVNSGFDLDSLFQKSLTYYKSYSPGSSKYKKHLKNTTRLRRDIYDMIHEHCNSKPYIYHYIHQDRTVPLYAVFELFTLGNLVFFTRCMSQNLNIEAQKQLKLYSPAFDQSKDILGDIIDCMKGLRNAIAHNGVLYDCRFKTGETSNRLKEYLAVKMDIHNLDFDRIIDYLILLILICSGLSYSKAELQRIIRQFEQNLDFLRSKISESTYDKIIGVRARPKLRSLKNFINNLDFYLKTDEGHHHHHH	soluble
MSLRPDMSRLTMIRFLTEIDYPPFNFTGADGNPAGFNVDLARALCDEIKITCTVQMRKFETLLDALASNRGDAIIASLAVTPQTRTKLDFTDPYYRTPARFVARKDAVMPEMRPEFLEGRKVGAVAGSAHEAYLKAMFTDAELHSYPNAEALRAALKRGEVDFIFGDAISLAFWINGTDSENCCAFSGAPFLESRYFGEGVGIAVRKGNDTLRQALNWALFRVWEKGQYTDLWLRYFSVSEGHHHHHH	soluble
MSKPKYNRVVLKLSGEALAGEQGFGINPAVIKSVAEQVKEIAELDVEVAVVVGGGNIWRGKIGSEMGMDRAGADYMGMLATVMNSLALQDSLENIGIQTRVQTSIEMRQVAEPYIRRKAVRHLEKKRVVIFAAGTGNPYFSTDTTAALRAAEIEADVILMAKNNVDGVYNADPSIDPTATKYETLTYLDVLKEGLGVMDSTASSLCMDNDIPLIVFSVMEKGNIKRAVLGENIGTVVRGKLEHHHHHH	not soluble
MGSDKIHHHHHHMATIDLIVLGIVKQQPKSAYDIQKAVEYRNISRWVKISTPSIYKKVIQLEQKGYIESKTVKNGKMPEKAVYSLTELGETHFLDLMFDTSSKPINILLDFNAVIVNLNSLTPEKQKLCLNNIEENVQELKKTIEENISIKTEVPETAKAVLEQQLVLAQALETWINSLKDNTGN	not soluble
GAKSEMAFAGKGEISPRAITMWDFSWLERRWPGAGYEDWDQVLDELSERGYNAIRIDAYPHLIAENPMKKWLLKEVWNQQDWGSPDMNEVQVQPNLNLFLSKCKERDIKVGLSSWYRLDVDEVCLKLDTPEKLADCWLTILRSIEEDGLLDTILYVDLCNEWPGDSWAPFFAKTYPNVGWGNWYKEESLRWMKTSLEKMRQVYPDMPFLYSFDHGDVKKYEEVDCSFLDLYEHHIWMAQQNGGEFYKLVGYGYNRFLPDDYKNVVKNAERVYRERPGYWQKLLTDKIELMASVARKNRRPLVTTECWGLVDYKDWPLLKWDWVKDLCELGTITAARTGMWVGVATSNFCGPQFAGMWRDVEWHKRLTSIIRSSPLDESLTKNNEVAAKLLKRL	soluble
SMQGPRTRARLGANEVLLVVGGFGSQQSPIDVVEKYDPKTQEWSFLPSITRKRRYVASVSLHDRIYVIGGYDGRSRLSSVECLDYTADEDGVWYSVAPMNVRRGLAGATTLGDMIYVSGGFDGSRRHTSMERYDPNIDQWSMLGDMQTAREGAGLVVASGVIYCLGGYDGLNILNSVEKYDPHTGHWTNVTPMATKRSGAGVALLNDHIYVVGGFDGTAHLSSVEAYNIRTDSWTTVTSMTTPRCYVGATVLRGRLYAIAGYDGNSLLSSIECYDPIIDSWEVVTSMGTQRCDAGVCVLRE	soluble
MDELRELLKAEQQAIKIYKEVLKKAKEGDEQELARLIQEIVKAEKQAVKVYKEAAEKARNPEKRQVIDKILEDEEKHIEWLKAASKQGNAEQFASLVQQILQDEQRHVEEIEKKN	soluble
ATLDVRGGYRSGSHAYETRLKVSEGWQNGWWASMESNTWNTIHDNKKENAALNDVQVEVNYAIKLDDQWTVRPGMLTHFSSNGTRYGPYVKLSWDATKDLNFGIRYRYDWKAYRQQDLSGDMSRDNVHRWDGYVTYHINSDFTFAWQTTLYSKQNDYRYANHKKWATENAFVLQYHMTPDITPYIEYDYLDRQGVYNGRDNLSENSYRIGVSFKL	soluble
SEDDLTKVLNYTKQRQTEPNPEYYGVAKKKNIIKIHLESFQTFLINKKVNGKEVTPFLNKLSSGKEQFTYFPNFFHQTGQGKTSDSEFTMDNSLYGLPQGSAFSLKGDNTYQSLPAILDQKQGYKSDVMHGDYKTFWNRDQVYKHFGIDKFYDATYYDMSDKNVVNLGLKDKIFFKDSANYQAKMKSPFYSHLITLTNHYPFTLDEKDATIEKSNTGDATVDGYIQTARYLDEALEEYINDLKKKGLYDNSVIMIYGDHYGISENHNNAMEKLLGEKITPAKFTDLNRTGFWIKIPGKSGGINNEYAGQVDVMPTILHLAGIDTKNYLMFGTDLFSKGHNQVVPFRNGDFITKDYKYVNGKIYSNKNNELITTQPADFEKNKKQVEKDLEMSDNVLNGDLFRFYKNPDFKKVNPSKYKYETGPK	soluble
MSSGSTSTTPRAWLSGSVVTGKCCLLVIRKGQRPGVPFPAPCASGVAVTGRPPCATGGRGRTRPPTGVGEDTKDSCGKGIADETPRRHHGGPATRKAGRATGRSERGHSRGTRPAELMPIPRSPVVVALGAFEISNES	not soluble
MGSDKIHHHHHHMNTLVLPKTQHLVVFQEVIRSGSIGSAAKSLGLTQPAVSKIISDVEAYFGVELIVRKNTGVTLTEAGQVLLSWSESITREMKNMINEMNSMTCNTVVDVSFGFPSLIGFTFMSDMIHKFKEVFPKAQVSMYEAQLSSFLPALRDGRLDFAIGTLSNEMQLQDLHVEPLFESEFVLVASKSRTCTGTITLESLKDEQWVLPQTNMGYYSELLTTLQRNGISIENIVKTDSVVTIYNLVLNADFLTVIPCDMTTPFGSNQFITIPIQDTLPVARYAAVWSKNYRIKKAASVLVELAKQYSSYNGCRRRQLIEIE	not soluble
